From doi:10.1101/719815 (bioRxiv, 2019)
Blank lines part the entries; values can stand above or below the binder they belong to.

B1: 6His-Cdc24_(428-854) (domain or fragment)
chain: SSDDNNTKELEAALDISKNIARSINENQRRTENHQVVKKLYGRVVNWKGYRISKFGELLYFDKVFISTTNSSSEPEREFEVYLFEKIIILFSEVVTKKSASSLILKKKSSTSASISASNITDNNGSPHHSYHKRHSNSSSSNNIHLSSSSAAAIIHSSTNSSDNNSNNSSSSSLFKLSANEPKLDLRGRIMIMNLNQIIPQNNRSLNITWESIKEQGNFLLKFKNEETRDNWSSCLQQLIHDLKNEQFKARHHSSTSTTSSTAKSSSMMSPTTTMNTPNHHNSRQTHDSMASFSSSHMKRVSDVLPKRRTTSSSFESEIKSISENFKNSIPESSILFRISYNNNSNNTSSSEIFTLLVEKVWNFDDLIMAINSKISNTHNNNISPITKIKYQDEDGDFVVLGSDEDWNVAKEMLAENNEKFLNIRLY

Columns and labels:
SNAP-tagged septin rods = SNAP-tagged septin rods (yeast, UniProt P32458;P32468;P32457;P25342); assay: SPR
Chain of SNAP-tagged septin rods (P32468 whole entry, chain 2 of 3): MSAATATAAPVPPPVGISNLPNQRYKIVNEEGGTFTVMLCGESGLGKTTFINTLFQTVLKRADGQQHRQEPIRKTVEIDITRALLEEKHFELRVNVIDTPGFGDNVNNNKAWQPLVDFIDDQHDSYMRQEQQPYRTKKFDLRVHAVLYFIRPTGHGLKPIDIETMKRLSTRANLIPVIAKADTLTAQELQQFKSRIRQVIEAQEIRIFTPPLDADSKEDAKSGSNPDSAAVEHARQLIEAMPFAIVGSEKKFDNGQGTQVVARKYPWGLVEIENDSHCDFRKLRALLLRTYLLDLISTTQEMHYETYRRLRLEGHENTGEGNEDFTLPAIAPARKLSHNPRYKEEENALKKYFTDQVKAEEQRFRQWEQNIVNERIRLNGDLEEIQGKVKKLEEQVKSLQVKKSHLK
Chain of SNAP-tagged septin rods (P32457 whole entry, chain 3 of 3): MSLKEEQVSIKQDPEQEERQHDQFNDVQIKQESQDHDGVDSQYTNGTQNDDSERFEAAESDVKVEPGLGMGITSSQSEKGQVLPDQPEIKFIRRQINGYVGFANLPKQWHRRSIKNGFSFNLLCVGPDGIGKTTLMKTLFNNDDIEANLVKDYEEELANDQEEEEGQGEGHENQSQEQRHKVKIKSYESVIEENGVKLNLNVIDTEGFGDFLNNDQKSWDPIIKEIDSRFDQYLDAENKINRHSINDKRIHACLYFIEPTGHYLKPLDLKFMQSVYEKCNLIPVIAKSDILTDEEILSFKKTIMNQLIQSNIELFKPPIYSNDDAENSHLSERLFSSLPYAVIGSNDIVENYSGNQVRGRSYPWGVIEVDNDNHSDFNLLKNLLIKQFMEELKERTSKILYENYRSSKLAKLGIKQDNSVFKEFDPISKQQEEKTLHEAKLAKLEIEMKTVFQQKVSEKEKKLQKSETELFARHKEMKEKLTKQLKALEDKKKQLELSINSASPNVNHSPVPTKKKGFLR
Chain of SNAP-tagged septin rods (P25342 whole entry, chain 4 of 3): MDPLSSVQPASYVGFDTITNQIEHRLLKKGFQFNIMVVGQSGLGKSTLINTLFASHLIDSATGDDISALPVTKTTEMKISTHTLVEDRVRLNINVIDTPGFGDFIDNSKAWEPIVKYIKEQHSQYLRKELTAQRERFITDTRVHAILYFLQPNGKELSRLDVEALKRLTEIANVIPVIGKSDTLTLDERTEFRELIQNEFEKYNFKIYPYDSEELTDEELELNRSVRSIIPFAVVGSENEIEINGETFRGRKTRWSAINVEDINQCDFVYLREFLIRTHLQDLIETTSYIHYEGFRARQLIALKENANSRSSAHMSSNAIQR

6His-Cdc24_(428-854) [1] = target: B1; assay: SPR
[2] = target: T1, 6His-Cdc24_(428-854) _(K801A) (yeast, UniProt P11433 428-854, K801A); assay: SPR
T1 sequence: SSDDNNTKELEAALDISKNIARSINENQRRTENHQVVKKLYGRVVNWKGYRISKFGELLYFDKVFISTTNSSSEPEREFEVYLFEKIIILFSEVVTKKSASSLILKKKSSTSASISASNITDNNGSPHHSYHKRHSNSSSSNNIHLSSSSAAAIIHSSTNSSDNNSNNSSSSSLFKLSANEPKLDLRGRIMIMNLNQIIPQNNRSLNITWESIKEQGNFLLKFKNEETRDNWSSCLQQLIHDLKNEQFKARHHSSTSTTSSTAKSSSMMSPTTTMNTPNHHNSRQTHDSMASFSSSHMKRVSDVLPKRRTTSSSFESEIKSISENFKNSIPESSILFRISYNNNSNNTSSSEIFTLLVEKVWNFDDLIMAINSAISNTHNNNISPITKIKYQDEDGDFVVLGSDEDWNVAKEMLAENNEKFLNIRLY

Cdc24_(428-854) _(K525E) = target: T2, Cdc24_(428-854) _(K525E) (yeast, UniProt P11433 428-854, K525E); assay: SPR
T2 sequence: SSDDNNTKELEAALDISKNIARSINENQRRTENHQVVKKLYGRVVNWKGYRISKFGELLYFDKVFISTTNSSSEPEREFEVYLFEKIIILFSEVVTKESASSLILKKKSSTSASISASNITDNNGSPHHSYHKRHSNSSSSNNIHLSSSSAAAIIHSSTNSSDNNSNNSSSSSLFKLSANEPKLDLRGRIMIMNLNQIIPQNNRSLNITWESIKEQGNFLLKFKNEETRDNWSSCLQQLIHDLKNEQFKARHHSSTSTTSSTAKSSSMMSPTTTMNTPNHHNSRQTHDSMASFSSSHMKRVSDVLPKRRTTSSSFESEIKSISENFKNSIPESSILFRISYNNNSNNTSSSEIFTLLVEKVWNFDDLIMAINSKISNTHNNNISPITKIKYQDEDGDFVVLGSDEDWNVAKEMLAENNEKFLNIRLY

[3] = target: T3, Cdc24_(428-854) _(K525E) _(K801A) (yeast, UniProt P11433 428-854, K525E | K801A); assay: SPR
T3 sequence: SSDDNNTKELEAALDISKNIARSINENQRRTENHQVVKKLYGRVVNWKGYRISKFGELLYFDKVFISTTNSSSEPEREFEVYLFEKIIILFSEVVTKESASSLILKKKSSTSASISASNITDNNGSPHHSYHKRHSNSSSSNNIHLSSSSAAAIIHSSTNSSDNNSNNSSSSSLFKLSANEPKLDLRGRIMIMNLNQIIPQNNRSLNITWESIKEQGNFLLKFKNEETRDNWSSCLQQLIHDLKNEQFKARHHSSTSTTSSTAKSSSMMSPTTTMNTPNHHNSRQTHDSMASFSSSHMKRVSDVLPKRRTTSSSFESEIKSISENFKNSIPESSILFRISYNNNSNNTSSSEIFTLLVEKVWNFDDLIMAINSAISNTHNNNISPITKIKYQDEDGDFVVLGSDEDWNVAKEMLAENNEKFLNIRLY

6His-Cdc24_(428-854) [4] = target: B1; assay: pull-down

Binder: B1
- Kd (SNAP-tagged septin rods): 351 nM

- Kd (6His-Cdc24_(428-854) [1]): 257 nM
- binding result [2]: binds
- binding result (Cdc24_(428-854) _(K525E)): binds
- binding result [3]: binds
B2: 6His-Cdc11-SNAP (natural protein)
chain: MSGIIDASSALRKRKHLKRGITFTVMIVGQSGSGRSTFINTLCGQQVVDTSTTILLPTDTSTEIDLQLREETVELEDDEGVKIQLNIIDTPGFGDSLDNSPSFEIISDYIRHQYDEILLEESRVRRNPRFKDGRVHCCLYLINPTGHGLKEIDVEFIRQLGSLVNIIPVISKSDSLTRDELKLNKKLIMEDIDRWNLPIYNFPFDEDEISDEDYETNMYLRTLLPFAIIGSNEVYEMGGDVGTIRGRKYPWGILDVEDSSISDFVILRNALLISHLHDLKNYTHEILYERYRTEALSGESVAAESIRPNLTKLNGSSSSSTTTRRNTNPFKQSNNINNDVLNPASDMHGQSTGENNETYMTREEQIRLEEERLKAFEERVQQELLLKRQELLQREKELREIEARLEKEAKIKQEE
modifications: biotinylated with BG-Biotin (on the SNAP tag)

- binding result (6His-Cdc24_(428-854) [4]): binds
B3: GST-Cdc11 (natural protein)
chain: MSGIIDASSALRKRKHLKRGITFTVMIVGQSGSGRSTFINTLCGQQVVDTSTTILLPTDTSTEIDLQLREETVELEDDEGVKIQLNIIDTPGFGDSLDNSPSFEIISDYIRHQYDEILLEESRVRRNPRFKDGRVHCCLYLINPTGHGLKEIDVEFIRQLGSLVNIIPVISKSDSLTRDELKLNKKLIMEDIDRWNLPIYNFPFDEDEISDEDYETNMYLRTLLPFAIIGSNEVYEMGGDVGTIRGRKYPWGILDVEDSSISDFVILRNALLISHLHDLKNYTHEILYERYRTEALSGESVAAESIRPNLTKLNGSSSSSTTTRRNTNPFKQSNNINNDVLNPASDMHGQSTGENNETYMTREEQIRLEEERLKAFEERVQQELLLKRQELLQREKELREIEARLEKEAKIKQEE
